# Results taken from patent US7393670B2, “Tyrosyl-tRNA synthetase variants” (Japan Science and Technology Agency, priority 2001, dated 2008).
# B1: 37L: E. coli TyrRS variant: position 37 Leucine, position 195 Glutamine (protein, UniProt P0AGJ9 2-424, looked up, variant Y37L)
# Tyrosine--tRNA ligase: ASSNLIKQLQERGLVAQVTDEEALAERLAQGPIALLCGFDPTADSLHLGHLVPLLCLKRFQQAGHKPVALVGGATGLIGDPSFKAAERKLNTEETVQEWVDKIRKQVAPFLDFDCGENSAIAANNYDWFGNMNVLTFLRDIGKHFSVNQMINKEAVKQRLNREDQGISFTEFSYNLLQGYDFACLNKQYGVVLQIGGSDQWGNITSGIDLTRRLHQNQVFGLTVPLITKADGTKFGKTEGGAVWLDPKKTSPYKFYQFWINTADADVYRFLKFFTFMSIEEINALEEEDKNSGKAPRAQYVLAEQVTRLVHGEEGLQAAKRITECLFSGSLSALSEADFEQLAQDGVPMVEMEKGADLMQALVDSELQPSRGQARKTIASNAITINGEKQSDPEYFFKEEDRLFGRFTLLRRGKKNYCLICWK
# B2: 195C: E. coli TyrRS variant: position 37 Tyrosine, position 195 Cysteine (protein, UniProt P0AGJ9 2-424, looked up, variant Q195C)
# Tyrosine--tRNA ligase: ASSNLIKQLQERGLVAQVTDEEALAERLAQGPIALYCGFDPTADSLHLGHLVPLLCLKRFQQAGHKPVALVGGATGLIGDPSFKAAERKLNTEETVQEWVDKIRKQVAPFLDFDCGENSAIAANNYDWFGNMNVLTFLRDIGKHFSVNQMINKEAVKQRLNREDQGISFTEFSYNLLQGYDFACLNKQYGVVLCIGGSDQWGNITSGIDLTRRLHQNQVFGLTVPLITKADGTKFGKTEGGAVWLDPKKTSPYKFYQFWINTADADVYRFLKFFTFMSIEEINALEEEDKNSGKAPRAQYVLAEQVTRLVHGEEGLQAAKRITECLFSGSLSALSEADFEQLAQDGVPMVEMEKGADLMQALVDSELQPSRGQARKTIASNAITINGEKQSDPEYFFKEEDRLFGRFTLLRRGKKNYCLICWK
# B3: 195A: E. coli TyrRS variant: position 37 Tyrosine, position 195 Alanine (protein, UniProt P0AGJ9 2-424, looked up, variant Q195A)
# Tyrosine--tRNA ligase: ASSNLIKQLQERGLVAQVTDEEALAERLAQGPIALYCGFDPTADSLHLGHLVPLLCLKRFQQAGHKPVALVGGATGLIGDPSFKAAERKLNTEETVQEWVDKIRKQVAPFLDFDCGENSAIAANNYDWFGNMNVLTFLRDIGKHFSVNQMINKEAVKQRLNREDQGISFTEFSYNLLQGYDFACLNKQYGVVLAIGGSDQWGNITSGIDLTRRLHQNQVFGLTVPLITKADGTKFGKTEGGAVWLDPKKTSPYKFYQFWINTADADVYRFLKFFTFMSIEEINALEEEDKNSGKAPRAQYVLAEQVTRLVHGEEGLQAAKRITECLFSGSLSALSEADFEQLAQDGVPMVEMEKGADLMQALVDSELQPSRGQARKTIASNAITINGEKQSDPEYFFKEEDRLFGRFTLLRRGKKNYCLICWK
# B4: LS: E. coli TyrRS double variant: position 37 Leucine, position 195 Serine (protein, UniProt P0AGJ9 2-424, looked up, variant Y37L Q195S)
# Tyrosine--tRNA ligase: ASSNLIKQLQERGLVAQVTDEEALAERLAQGPIALLCGFDPTADSLHLGHLVPLLCLKRFQQAGHKPVALVGGATGLIGDPSFKAAERKLNTEETVQEWVDKIRKQVAPFLDFDCGENSAIAANNYDWFGNMNVLTFLRDIGKHFSVNQMINKEAVKQRLNREDQGISFTEFSYNLLQGYDFACLNKQYGVVLSIGGSDQWGNITSGIDLTRRLHQNQVFGLTVPLITKADGTKFGKTEGGAVWLDPKKTSPYKFYQFWINTADADVYRFLKFFTFMSIEEINALEEEDKNSGKAPRAQYVLAEQVTRLVHGEEGLQAAKRITECLFSGSLSALSEADFEQLAQDGVPMVEMEKGADLMQALVDSELQPSRGQARKTIASNAITINGEKQSDPEYFFKEEDRLFGRFTLLRRGKKNYCLICWK
# B5: 195S: E. coli TyrRS variant: position 37 Tyrosine, position 195 Serine (protein, UniProt P0AGJ9 2-424, looked up, variant Q195S)
# Tyrosine--tRNA ligase: ASSNLIKQLQERGLVAQVTDEEALAERLAQGPIALYCGFDPTADSLHLGHLVPLLCLKRFQQAGHKPVALVGGATGLIGDPSFKAAERKLNTEETVQEWVDKIRKQVAPFLDFDCGENSAIAANNYDWFGNMNVLTFLRDIGKHFSVNQMINKEAVKQRLNREDQGISFTEFSYNLLQGYDFACLNKQYGVVLSIGGSDQWGNITSGIDLTRRLHQNQVFGLTVPLITKADGTKFGKTEGGAVWLDPKKTSPYKFYQFWINTADADVYRFLKFFTFMSIEEINALEEEDKNSGKAPRAQYVLAEQVTRLVHGEEGLQAAKRITECLFSGSLSALSEADFEQLAQDGVPMVEMEKGADLMQALVDSELQPSRGQARKTIASNAITINGEKQSDPEYFFKEEDRLFGRFTLLRRGKKNYCLICWK
# B6: IC: E. coli TyrRS double variant: position 37 Isoleucine, position 195 Cysteine (protein, UniProt P0AGJ9 2-424, looked up, variant Y37I Q195C)
# Tyrosine--tRNA ligase: ASSNLIKQLQERGLVAQVTDEEALAERLAQGPIALICGFDPTADSLHLGHLVPLLCLKRFQQAGHKPVALVGGATGLIGDPSFKAAERKLNTEETVQEWVDKIRKQVAPFLDFDCGENSAIAANNYDWFGNMNVLTFLRDIGKHFSVNQMINKEAVKQRLNREDQGISFTEFSYNLLQGYDFACLNKQYGVVLCIGGSDQWGNITSGIDLTRRLHQNQVFGLTVPLITKADGTKFGKTEGGAVWLDPKKTSPYKFYQFWINTADADVYRFLKFFTFMSIEEINALEEEDKNSGKAPRAQYVLAEQVTRLVHGEEGLQAAKRITECLFSGSLSALSEADFEQLAQDGVPMVEMEKGADLMQALVDSELQPSRGQARKTIASNAITINGEKQSDPEYFFKEEDRLFGRFTLLRRGKKNYCLICWK
# B7: IS: E. coli TyrRS double variant: position 37 Isoleucine, position 195 Serine (protein, UniProt P0AGJ9 2-424, looked up, variant Y37I Q195S)
# Tyrosine--tRNA ligase: ASSNLIKQLQERGLVAQVTDEEALAERLAQGPIALICGFDPTADSLHLGHLVPLLCLKRFQQAGHKPVALVGGATGLIGDPSFKAAERKLNTEETVQEWVDKIRKQVAPFLDFDCGENSAIAANNYDWFGNMNVLTFLRDIGKHFSVNQMINKEAVKQRLNREDQGISFTEFSYNLLQGYDFACLNKQYGVVLSIGGSDQWGNITSGIDLTRRLHQNQVFGLTVPLITKADGTKFGKTEGGAVWLDPKKTSPYKFYQFWINTADADVYRFLKFFTFMSIEEINALEEEDKNSGKAPRAQYVLAEQVTRLVHGEEGLQAAKRITECLFSGSLSALSEADFEQLAQDGVPMVEMEKGADLMQALVDSELQPSRGQARKTIASNAITINGEKQSDPEYFFKEEDRLFGRFTLLRRGKKNYCLICWK
# B8: 195N: E. coli TyrRS variant: position 37 Tyrosine, position 195 Asparagine (protein, UniProt P0AGJ9 2-424, looked up, variant Q195N)
# Tyrosine--tRNA ligase: ASSNLIKQLQERGLVAQVTDEEALAERLAQGPIALYCGFDPTADSLHLGHLVPLLCLKRFQQAGHKPVALVGGATGLIGDPSFKAAERKLNTEETVQEWVDKIRKQVAPFLDFDCGENSAIAANNYDWFGNMNVLTFLRDIGKHFSVNQMINKEAVKQRLNREDQGISFTEFSYNLLQGYDFACLNKQYGVVLNIGGSDQWGNITSGIDLTRRLHQNQVFGLTVPLITKADGTKFGKTEGGAVWLDPKKTSPYKFYQFWINTADADVYRFLKFFTFMSIEEINALEEEDKNSGKAPRAQYVLAEQVTRLVHGEEGLQAAKRITECLFSGSLSALSEADFEQLAQDGVPMVEMEKGADLMQALVDSELQPSRGQARKTIASNAITINGEKQSDPEYFFKEEDRLFGRFTLLRRGKKNYCLICWK
# B9: 37I: E. coli TyrRS variant: position 37 Isoleucine, position 195 Glutamine (protein, UniProt P0AGJ9 2-424, looked up, variant Y37I)
# Tyrosine--tRNA ligase: ASSNLIKQLQERGLVAQVTDEEALAERLAQGPIALICGFDPTADSLHLGHLVPLLCLKRFQQAGHKPVALVGGATGLIGDPSFKAAERKLNTEETVQEWVDKIRKQVAPFLDFDCGENSAIAANNYDWFGNMNVLTFLRDIGKHFSVNQMINKEAVKQRLNREDQGISFTEFSYNLLQGYDFACLNKQYGVVLQIGGSDQWGNITSGIDLTRRLHQNQVFGLTVPLITKADGTKFGKTEGGAVWLDPKKTSPYKFYQFWINTADADVYRFLKFFTFMSIEEINALEEEDKNSGKAPRAQYVLAEQVTRLVHGEEGLQAAKRITECLFSGSLSALSEADFEQLAQDGVPMVEMEKGADLMQALVDSELQPSRGQARKTIASNAITINGEKQSDPEYFFKEEDRLFGRFTLLRRGKKNYCLICWK
# Key:
# [1] = Aminoacylation reaction, simplified Lloyd's method, inorganic phosphate detected with Biomol green; type: biochemical; set-up: key: ***: the aminoacylation reaction was detected by a microplate reader in the reaction at enzyme concentrations of 50 nM; **: 500 nM; *: 5 μM; the activity is high in the order of *** > ** > * > —; settings: tyrosine 200 μM, 37° C. for 4 min
# Procedure: (§1) In the first method, Lloyd's method (Nucleic Acids Research, 23:2886-2892, 1995) where inorganic phosphate produced by pyrophosphatase-drived hydrolysis of pyrophosphate which was one of the reaction products of the aminoacylation reactions was quantified was simplified, and the inorganic phosphate was detected using Biomol green (Funakoshi) to carry out the measurement of the aminoacylation reaction.
# (§2) Amino acid concentrations were 200 μM and 1 mM for tyrosine and 3-iodotyrosine, respectively.
# The method where the aminoacylation reaction is measured by quantifying inorganic phosphate produced by pyrophosphatase-drived hydrolysis of pyrophosphate which is one of reaction products of the aminoacylation has been described by Lloyd et al. (Nucleic Acids Research, 23:2886-2892, 1995). In one method of the invention, this method was simplified and the aminoacylation reaction was measured by the detection of inorganic phosphate using Biomol green (Funakoshi). […] To stop the reaction, 0.1 ml of Bio mol green was added. Absorbance of its supernatant was measured at 630 nm.
# [2] = as above; type: biochemical; set-up: key: ***: the aminoacylation reaction was detected by a microplate reader in the reaction at enzyme concentrations of 50 nM; **: 500 nM; *: 5 μM; the activity is high in the order of *** > ** > * > —; settings: 3-iodotyrosine 1 mM, 37° C. for 4 min
# Procedure: as §1, §2
# The method where the aminoacylation reaction is measured by quantifying inorganic phosphate produced by pyrophosphatase-drived hydrolysis of pyrophosphate which is one of reaction products of the aminoacylation has been described by Lloyd et al. (Nucleic Acids Research, 23:2886-2892, 1995). In one method of the invention, this method was simplified and the aminoacylation reaction was measured by the detection of inorganic phosphate using Biomol green (Funakoshi). Each enzyme obtained was incubated with 0.05 ml of the buffer B containing 1 mM ATP (Seikagaku Corporation), 30 μM purified crude tyrosyl-tRNA, and 100 μM tyrosine or 0.5 mM 3-iodotyrosine at 37° C. for one hour. To stop the reaction, 0.1 ml of Bio mol green was added. Absorbance of its supernatant was measured at 630 nm.
Molecule,"Aminoacylation activity, Tyrosine ([1]; Table 2)","Aminoacylation activity, 3-iodotyrosine ([2]; Table 2)","Aminoacylation activity, Tyrosine ([1]; Table 3)","Aminoacylation activity, 3-iodotyrosine ([2]; Table 3)"
B1,***,***,,
B2,***,*,,
B3,***,*,,
B4,,,—,—
B5,***,*,,
B6,,,—,—
B7,,,—,—
B8,***,*,,
B9,**,***,,
